Results published in publication PMC6761861 (Chemical Science, 2019).
Read-outs that look alike come from different tables or passages of the source. No end group written: not given here.

Legend:
TMD5 (coumarin-labelled) = TMD5 (coumarin-labelled) (Epstein-Barr virus, UniProt P03230); test: FRET assay; type: binding
[1] = test system: NF-κB activity (LMP-1) in EBV positive B721 cells; details: read-out: IC50, inhibition of B721 cell NF-κB activity; cited from earlier work
[2] = test system: TMD5/TMD5 interaction (TMD5–ToxR); test: Dominant-negative ToxR assay in bacterial membranes; type: cell-based, Epstein–Barr virus; details: co-expressed as ToxR* fusion with TMD5–ToxR in E. coli FHK12; result in words
[3] = biological target: coumarin-labelled LMP-1 transmembrane domain 5 (TMD5) peptide (Epstein-Barr virus); test: other fluorescence titration
[4] = biological target: coumarin-labelled LMP-1 transmembrane domain 5 (TMD5) peptide (Epstein-Barr virus); test: FRET or BRET
[5] = biological target: coumarin-labelled LMP-1 transmembrane domain 5 (TMD5) peptide (Epstein-Barr virus); test: FRET or BRET; remark: listed apart in the source

Molecule: KKKKWWKLWYFLVWFLDLIILILLLWWKKKK [anti-TMD5]
- Kd (TMD5 (coumarin-labelled)): 0.04 ± 0.0067 µM

Molecule: N=C(N)c1ccc(C=Cc2ccc(C(=N)N)cc2O)cc1 [NSC259242]
- IC50 [1]: 29.6 ± 6.6 µM

Molecule: KKKK-VFLWLWLIWIFIDWKLWLLYWLL-KKKK [anti-TMD5 scramble]
- quenching of TMD5-coumarin fluorescence and FRET signal compared to anti-TMD5 (TMD5 (coumarin-labelled); 1.0 mM C14 betaine micelles, 20 mM HEPES, pH 7.4, result in words): much less quenching of TMD5-coumarin fluorescence and weaker FRET signal from FITC emission
- effect on TMD5 Miller unit [2]: did not inhibit the TMD5 Miller unit

Molecule: WWKLWYFLVWFLDLIILILLLWW (designed binder) [anti-TMD5 peptide (unlabelled)]
- EC50 [3]: 3.3 µM

Molecule: WWKLWYFLVWFLDLIILILLLWW (designed binder, also: FITC label, position not given here) [FITC-tagged anti-TMD5 peptide]
- Kd [4]: 0.0678 µM
- stoichiometry N [4]: 0.53
- Kd [5]: 40 µM
- stoichiometry N [5]: 0.44
